According to patent US6884600:

How the values were obtained:
[1] = target: myosin from chicken gizzard, dephosphorylated form (chicken) (UniProt P10587); assay: co-sedimentation with M21 in excess (10-50 µM M21, 1 µM myosin), Coomassie-stained gel
[2] = target: PP1GL, glycogen-associated form of PP1 in rat hepatic glycogen-protein particles (rat); assay: cell-based or functional assay
[3] = target: myosin from chicken gizzard, dephosphorylated form (chicken) (UniProt P10587); assay: co-sedimentation, 30 nM PP1M with 1 µM myosin

myosin from chicken gizzard, dephosphorylated form (chicken), sequence (P10587 2-1979, chain 1 of 3): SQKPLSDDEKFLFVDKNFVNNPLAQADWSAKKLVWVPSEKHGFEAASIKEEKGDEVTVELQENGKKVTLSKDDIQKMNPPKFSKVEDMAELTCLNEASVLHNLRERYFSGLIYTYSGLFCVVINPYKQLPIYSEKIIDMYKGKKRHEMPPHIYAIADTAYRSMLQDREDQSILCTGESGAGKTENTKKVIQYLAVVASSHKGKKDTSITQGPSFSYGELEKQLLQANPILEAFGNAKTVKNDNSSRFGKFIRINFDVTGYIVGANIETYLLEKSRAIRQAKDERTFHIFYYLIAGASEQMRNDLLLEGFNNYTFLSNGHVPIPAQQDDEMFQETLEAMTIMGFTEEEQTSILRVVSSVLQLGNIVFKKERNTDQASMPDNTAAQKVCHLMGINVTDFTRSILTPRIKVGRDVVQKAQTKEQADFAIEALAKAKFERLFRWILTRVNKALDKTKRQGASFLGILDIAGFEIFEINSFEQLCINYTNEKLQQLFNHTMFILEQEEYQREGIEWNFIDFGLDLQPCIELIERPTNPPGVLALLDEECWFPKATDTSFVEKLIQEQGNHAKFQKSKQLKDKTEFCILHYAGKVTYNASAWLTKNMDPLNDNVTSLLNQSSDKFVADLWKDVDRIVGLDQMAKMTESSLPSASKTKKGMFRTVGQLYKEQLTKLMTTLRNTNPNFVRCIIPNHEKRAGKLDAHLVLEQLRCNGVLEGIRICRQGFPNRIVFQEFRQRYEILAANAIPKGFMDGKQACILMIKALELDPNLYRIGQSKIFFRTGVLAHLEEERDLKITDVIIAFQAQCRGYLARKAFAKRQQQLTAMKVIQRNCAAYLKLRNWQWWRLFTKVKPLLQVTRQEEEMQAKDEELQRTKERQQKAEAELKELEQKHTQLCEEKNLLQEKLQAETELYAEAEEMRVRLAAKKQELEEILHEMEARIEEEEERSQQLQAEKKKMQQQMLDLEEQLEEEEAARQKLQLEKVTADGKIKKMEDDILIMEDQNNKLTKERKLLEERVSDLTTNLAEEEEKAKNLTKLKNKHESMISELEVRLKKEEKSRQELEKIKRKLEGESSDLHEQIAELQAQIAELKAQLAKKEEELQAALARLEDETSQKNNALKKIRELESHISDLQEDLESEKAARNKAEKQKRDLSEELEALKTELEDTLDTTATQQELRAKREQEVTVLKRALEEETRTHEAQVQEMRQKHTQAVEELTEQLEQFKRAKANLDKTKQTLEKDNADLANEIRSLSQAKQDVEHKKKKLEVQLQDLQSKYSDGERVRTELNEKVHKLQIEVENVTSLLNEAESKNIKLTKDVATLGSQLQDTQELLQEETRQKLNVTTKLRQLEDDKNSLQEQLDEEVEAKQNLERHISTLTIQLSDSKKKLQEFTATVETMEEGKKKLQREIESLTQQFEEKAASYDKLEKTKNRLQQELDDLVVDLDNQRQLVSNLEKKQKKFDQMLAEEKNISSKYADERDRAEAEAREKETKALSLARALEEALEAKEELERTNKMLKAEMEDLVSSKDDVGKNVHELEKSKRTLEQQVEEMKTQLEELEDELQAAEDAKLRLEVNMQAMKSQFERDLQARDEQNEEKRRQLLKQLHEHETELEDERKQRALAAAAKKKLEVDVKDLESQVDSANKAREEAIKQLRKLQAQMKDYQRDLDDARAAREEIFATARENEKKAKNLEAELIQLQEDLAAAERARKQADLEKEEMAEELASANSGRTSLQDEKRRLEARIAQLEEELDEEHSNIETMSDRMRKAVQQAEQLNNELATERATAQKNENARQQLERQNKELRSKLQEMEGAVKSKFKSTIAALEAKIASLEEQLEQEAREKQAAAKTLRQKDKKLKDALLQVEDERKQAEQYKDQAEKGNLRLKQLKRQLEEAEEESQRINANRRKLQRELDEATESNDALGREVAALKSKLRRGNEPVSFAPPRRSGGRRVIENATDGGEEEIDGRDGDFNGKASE
myosin from chicken gizzard, dephosphorylated form (chicken), sequence (P02612 2-172, chain 2 of 3, further chain): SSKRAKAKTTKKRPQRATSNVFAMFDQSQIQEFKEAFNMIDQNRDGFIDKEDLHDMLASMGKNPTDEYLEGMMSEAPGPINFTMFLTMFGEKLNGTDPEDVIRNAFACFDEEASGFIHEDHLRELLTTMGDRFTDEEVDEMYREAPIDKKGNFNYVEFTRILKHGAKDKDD
myosin from chicken gizzard, dephosphorylated form (chicken), sequence (P02607 2-151, chain 3 of 3, further chain): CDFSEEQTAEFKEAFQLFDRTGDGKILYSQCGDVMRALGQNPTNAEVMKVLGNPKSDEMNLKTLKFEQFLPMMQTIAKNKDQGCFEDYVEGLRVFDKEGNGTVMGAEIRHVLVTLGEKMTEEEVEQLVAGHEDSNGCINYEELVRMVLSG
PP1M, myosin-associated form of PP1 from chicken gizzard, sequence (P62207 2-327): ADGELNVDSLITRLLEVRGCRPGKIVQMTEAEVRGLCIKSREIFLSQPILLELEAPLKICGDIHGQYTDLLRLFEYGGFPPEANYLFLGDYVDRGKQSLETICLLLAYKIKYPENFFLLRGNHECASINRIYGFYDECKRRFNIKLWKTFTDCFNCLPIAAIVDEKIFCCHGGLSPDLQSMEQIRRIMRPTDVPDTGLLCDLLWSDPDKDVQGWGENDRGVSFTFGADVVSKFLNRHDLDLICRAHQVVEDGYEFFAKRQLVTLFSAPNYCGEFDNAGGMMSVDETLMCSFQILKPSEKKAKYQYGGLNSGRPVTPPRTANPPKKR
PP1M, myosin-associated form of PP1 from chicken gizzard, sequence (chain): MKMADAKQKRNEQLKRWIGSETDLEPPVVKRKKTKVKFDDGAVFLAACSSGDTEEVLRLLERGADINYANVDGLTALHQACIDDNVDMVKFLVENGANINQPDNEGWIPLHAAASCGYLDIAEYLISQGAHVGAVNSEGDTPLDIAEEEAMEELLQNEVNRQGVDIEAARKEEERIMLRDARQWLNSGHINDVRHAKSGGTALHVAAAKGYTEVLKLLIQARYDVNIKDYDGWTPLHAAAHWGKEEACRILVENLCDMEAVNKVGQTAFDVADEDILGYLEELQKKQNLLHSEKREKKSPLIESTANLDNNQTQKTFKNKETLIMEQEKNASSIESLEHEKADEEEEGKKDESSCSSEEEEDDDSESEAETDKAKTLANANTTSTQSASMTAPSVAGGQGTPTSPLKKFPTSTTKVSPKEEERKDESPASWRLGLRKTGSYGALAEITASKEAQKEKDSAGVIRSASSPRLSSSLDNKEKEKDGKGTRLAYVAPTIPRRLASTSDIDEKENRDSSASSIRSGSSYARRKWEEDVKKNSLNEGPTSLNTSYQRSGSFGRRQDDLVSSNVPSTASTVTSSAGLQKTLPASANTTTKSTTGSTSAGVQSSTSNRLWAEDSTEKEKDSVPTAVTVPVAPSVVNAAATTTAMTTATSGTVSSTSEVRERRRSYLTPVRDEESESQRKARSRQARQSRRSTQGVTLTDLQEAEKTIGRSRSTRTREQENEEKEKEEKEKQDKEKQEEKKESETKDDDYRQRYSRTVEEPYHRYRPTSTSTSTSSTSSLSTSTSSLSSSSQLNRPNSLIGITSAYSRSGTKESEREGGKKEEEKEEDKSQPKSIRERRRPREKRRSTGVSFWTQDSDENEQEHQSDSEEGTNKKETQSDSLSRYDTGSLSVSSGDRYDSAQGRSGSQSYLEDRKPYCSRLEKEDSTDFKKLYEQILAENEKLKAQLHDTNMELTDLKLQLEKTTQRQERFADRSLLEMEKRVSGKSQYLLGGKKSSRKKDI

“M21 subunit of chicken gizzard PP1M, full length (M1-K186)” gave a moles of M21 subunit bound to each myosin dimer (mol/mol myosin dimer) [1] greater than 20.
In the case of “GM[G63-N75] variant with Val 66 changed to Ala (peptide)”, the effectiveness of disruption of the PP1-GL complex relative to wild type GM[63-75] [2] was 100 fold.
With “PP1M, myosin-associated form of PP1 from chicken gizzard (from UniProt P62207 2-327) (enzyme)” the percent of myosin P-light chain phosphatase recovered in the myosin pellet [3] was 85%.
